Experimental data: article PMC4257719

Molecular target: P. berghei SPECT1Δ41 (amino acids 42-241) (P. berghei)
Experiment: SEC-MALS; TSK-Gel G3000 SWxl column with multiangle static light scattering; 150 mM NaCl, 50 mM Tris or HEPES, pH 7.4; monomer and dimer fractions run separately; the two species are stable over days

P. berghei SPECT1Δ41 (amino acids 42-241) (domain or fragment)
stoichiometry N: 2
